The record followed here is patent publication US20250333467A1 (TECTONIC OPERATING, published 2025).

Where a chain is given by its changes, count along the chain named.

The labels stand for the following.
T1: human RXFP1 (human, UniProt Q9HBX9 1-757)
T1 sequence (looked up): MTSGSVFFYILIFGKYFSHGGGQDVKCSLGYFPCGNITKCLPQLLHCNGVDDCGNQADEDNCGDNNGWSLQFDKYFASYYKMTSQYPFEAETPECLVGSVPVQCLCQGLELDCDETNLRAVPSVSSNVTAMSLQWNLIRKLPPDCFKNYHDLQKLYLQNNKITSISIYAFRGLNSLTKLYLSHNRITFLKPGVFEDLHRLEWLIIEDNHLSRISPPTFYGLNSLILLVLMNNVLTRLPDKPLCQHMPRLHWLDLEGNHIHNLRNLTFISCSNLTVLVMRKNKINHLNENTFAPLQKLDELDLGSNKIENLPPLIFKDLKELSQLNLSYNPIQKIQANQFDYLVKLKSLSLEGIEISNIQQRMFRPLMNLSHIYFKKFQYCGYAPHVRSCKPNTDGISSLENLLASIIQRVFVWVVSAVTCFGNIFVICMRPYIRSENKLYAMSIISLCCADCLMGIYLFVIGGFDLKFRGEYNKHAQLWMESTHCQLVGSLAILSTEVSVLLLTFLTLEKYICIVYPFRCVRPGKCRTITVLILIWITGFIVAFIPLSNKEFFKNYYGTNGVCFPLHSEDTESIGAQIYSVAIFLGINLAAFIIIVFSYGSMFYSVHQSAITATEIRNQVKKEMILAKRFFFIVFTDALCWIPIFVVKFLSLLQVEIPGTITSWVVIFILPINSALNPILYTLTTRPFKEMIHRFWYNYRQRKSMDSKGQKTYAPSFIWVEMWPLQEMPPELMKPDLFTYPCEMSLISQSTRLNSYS

B1: SEQ ID NO: 367 (Fc fusion)
chain: DKTHTCPPCPAPEAAGGPSVFLFPPKPKDTLMISRTPEVTCVVVDVSHEDPEVKFNWYVDGVEVHNAKTKPREEQYNSTYRVVSVLTVLHQDWLNGKEYKCKVSNKALAAPIEKTISKAKGQPREPQVYTLPPSRDELTKNQVSLTCLVKGFYPSDIAVEWESNGQPENNYKTTPPVLDSDGSFFLYSKLTVDKSRWQQGNVFSCSVLHEALHSHYTQKSLSLSPGGGSDSWMEEVIKLCGRELVRAQIAICGKSTGGEGGGEEGGGEGGQLYSALANKCCHVGCTKRSLARFC
B2: SEQ ID NO: 327 (Fc fusion)
chain: B1 chain with M233Q, G261E, E263G, G266E, E268G, G269S, G270R
B3: SEQ ID NO: 328 (Fc fusion)
chain: B1 chain with M233Q, G261E, E263G, G266E, E268G, G269S, G270R, R292Q
B4: SEQ ID NO: 117 (Fc fusion)
chain: DKTHTCPPCPAPEAAGGPSVFLFPPKPKDTLMISRTPEVTCVVVDVSHEDPEVKFNWYVDGVEVHNAKTKPREEQYNSTYRVVSVLTVLHQDWLNGKEYKCKVSNKALAAPIEKTISKAKGQPREPQVYTLPPSRDELTKNQVSLTCLVKGFYPSDIAVEWESNGQPENNYKTTPPVLDSDGSFFLYSKLTVDKSRWQQGNVFSCSVLHEALHSHYTQKSLSLSPGEGGSDSWQEEVIKLCGRELVRAQIAICGQSTASDAAGADAQAGARQLYSALANKCCHVGCTKQSLAQFC
B5: SEQ ID NO: 99 (Fc fusion)
chain: B4 chain with D265N, Q267D, Q289R
B6: SEQ ID NO: 100 (Fc fusion)
chain: B4 chain with Q267D, Q289R
B7: SEQ ID NO: 97 (Fc fusion)
chain: B4 chain with Q255K, D265Q, Q289R
B8: SEQ ID NO: 110 (Fc fusion)
chain: B4 chain with Q255K
B9: SEQ ID NO: 96 (Fc fusion)
chain: B4 chain with Q255K, Q289R
B10: SEQ ID NO: 102 (Fc fusion)
chain: B4 chain with D265Q, Q267D, Q289R
B11: SEQ ID NO: 108 (Fc fusion)
chain: B4 chain with Q255K, D265E, Q267E
B12: SEQ ID NO: 88 (Fc fusion)
chain: B4 chain with E227K, Q255K, D265Q, Q267D, Q289R
B13: SEQ ID NO: 101 (Fc fusion)
chain: B4 chain with D265E, Q267E, Q289R
B14: SEQ ID NO: 106 (Fc fusion)
chain: B4 chain with Q255K, D265N, Q267D
B15: SEQ ID NO: 89 (Fc fusion)
chain: B4 chain with E227K, Q255K, Q289R
B16: SEQ ID NO: 112 (Fc fusion)
chain: B4 chain with Q267N
B17: SEQ ID NO: 84 (Fc fusion)
chain: B4 chain with E227K, Q255K, Q267N, Q289R
B18: SEQ ID NO: 113 (Fc fusion)
chain: B4 chain with D265N, Q267D
B19: SEQ ID NO: 103 (Fc fusion)
chain: B4 chain with Q289R
B20: SEQ ID NO: 116 (Fc fusion)
chain: B4 chain with D265Q, Q267D
B21: SEQ ID NO: 90 (Fc fusion)
chain: B4 chain with E227K, Q255K, D265Q, Q289R
B22: SEQ ID NO: 92 (Fc fusion)
chain: B4 chain with Q255K, D265N, Q267D, Q289R
B23: SEQ ID NO: 85 (Fc fusion)
chain: B4 chain with E227K, Q255K, D265N, Q267D, Q289R
B24: SEQ ID NO: 94 (Fc fusion)
chain: B4 chain with Q255K, D265E, Q267E, Q289R
B25: SEQ ID NO: 133 (Fc fusion)
chain: B4 chain with E227K, W233Y, Q255K, D265E, Q267E, H283Y
B26: SEQ ID NO: 135 (Fc fusion)
chain: DKTHTCPPCPAPEAAGGPSVFLFPPKPKDTLMISRTPEVTCVVVDVSHEDPEVKFNWYVDGVEVHNAKTKPREEQYNSTYRVVSVLTVLHQDWLNGKEYKCKVSNKALAAPIEKTISKAKGQPREPQVYTLPPSRDELTKNQVSLTCLVKGFYPSDIAVEWESNGQPENNYKTTPPVLDSDGSFFLYSKLTVDKSRWQQGNVFSCSVLHEALHSHYTQKSLSLSPGKGGSDSYQEEVIKLCGRELVRAQIAICGKSTGGEGSGGEGEGGGRQLYSALANKCCYVGCTKQSLAQFC
B27: SEQ ID NO: 134 (Fc fusion)
chain: B4 chain with E227K, W233Y, Q255K, D265E, Q267E, H283K
B28: SEQ ID NO: 137 (Fc fusion)
chain: B26 chain with E267S
B29: SEQ ID NO: 136 (Fc fusion)
chain: B26 chain with Y283K
B30: SEQ ID NO: 138 (Fc fusion)
chain: B26 chain with E267S, Y283K

One test deals with T1, human RXFP1. Kind of test: cell-based or functional assay.
Consider B1, for which the “Potency (cAMP, transient hRXFP1 in HEK293)” value (shortened to “Potency”) worked out at 140 nM. Still for that read-out and setting: to B2 belongs 9.3 nM; to B3, 41.9 nM; to B4, 31.2 nM. B5: the “Potency” value is 9.4 nM.

B6: the “Potency” value came out at 28.7 nM. Regarding B7, the “Potency” value came out at 1.3 nM. Still for that read-out and setting: to B8 belongs 17.2 nM; to B9, 9.9 nM; to B10, 7.5 nM.

As to B11, the “Potency” value is 35.2 nM. Still for that read-out and setting: to B12 belongs 1.4 nM. For B13, the “Potency” value is 29.4 nM. With B14, the “Potency” value is 14 nM. The same measure, in the same setting: with B15 the figure was 2.5 nM; with B16, 24.8 nM.

B17: the “Potency” value is 1.9 nM. Same read-out and setting: with B18 the figure was 26 nM; with B19, 12.2 nM. On the same count and under the same terms, with B20 the figure was 25.9 nM.

Take B21: the “Potency” value came to 0.6 nM. On the same count and under the same terms, with B22 the figure was 4.3 nM; with B23, 2 nM; with B24, 12.2 nM.

Another test concerns the target T1, human RXFP1. As to the kind of experiment: cell-based or functional assay. The source holds these as a separate data set.
Consider B25, for which the “Potency” value amounted to 30.6 nM. The same measure, in the same setting: to B26 belongs 29.5 nM; to B27, 21.6 nM; to B28, 11.4 nM.

Take B29: the “Potency” value is 17.6 nM.

Turning to B30, the “Potency” value came to 7.5 nM.

The next test deals with T1, human RXFP1. As to the kind of experiment: cell-based or functional assay. The source holds these as a separate data set.
B1: the “Transient HEK293 hRXFP1 cAMP EC50” value was ~150 nM.

Consider B21, for which the “THP1 (endogenous RXFP1) cAMP EC50” value came to 4.4 nM and the “Transient HEK293 hRXFP1 cAMP EC50” value was 0.6 nM.
